Values joined by “and” are separate entries in the source; they are usually repeats but may differ in a detail not shown here. Identical values can stand only once.
How the values were obtained:
[1] = molecular target: recombinant human Axl-Fc chimera (rhAxl-Fc; R&D Systems, Cat. no. 154-AL) (human) (UniProt P30530); assay: SPR two-injection competition on immobilised Axl-Fc; first injection
[2] = molecular target: recombinant human Axl-Fc chimera (rhAxl-Fc; R&D Systems, Cat. no. 154-AL) (human) (UniProt P30530); assay: SPR two-injection competition on immobilised Axl-Fc; second injection, competitor bound first: 10G5
[3] = molecular target: recombinant human Axl-Fc chimera (rhAxl-Fc; R&D Systems, Cat. no. 154-AL) (human) (UniProt P30530); assay: SPR two-injection competition on immobilised Axl-Fc; response expected for the second sample (first: YW327.6S2)
[4] = molecular target: recombinant human Axl-Fc chimera (rhAxl-Fc; R&D Systems, Cat. no. 154-AL) (human) (UniProt P30530); assay: SPR two-injection competition on immobilised Axl-Fc; response expected for the second sample (first: 10G5)
[5] = molecular target: recombinant human Axl-Fc chimera (rhAxl-Fc; R&D Systems, Cat. no. 154-AL) (human) (UniProt P30530); assay: SPR two-injection competition on immobilised Axl-Fc; second injection, competitor bound first: YW327.6S2
[6] = molecular target: T1, recombinant human Mer-Fc chimera (rhMer-Fc; R&D Systems, Cat no. 891-MR) (human, UniProt Q12866 21-505); assay: Biacore 3000 SPR, rhMer-Fc on a CM5 chip, antibody injected for 3 min; concentration from Example 2, not printed on the sheet
T1 construct: Bought construct; Fc part of the bought chimera not given
T1 sequence: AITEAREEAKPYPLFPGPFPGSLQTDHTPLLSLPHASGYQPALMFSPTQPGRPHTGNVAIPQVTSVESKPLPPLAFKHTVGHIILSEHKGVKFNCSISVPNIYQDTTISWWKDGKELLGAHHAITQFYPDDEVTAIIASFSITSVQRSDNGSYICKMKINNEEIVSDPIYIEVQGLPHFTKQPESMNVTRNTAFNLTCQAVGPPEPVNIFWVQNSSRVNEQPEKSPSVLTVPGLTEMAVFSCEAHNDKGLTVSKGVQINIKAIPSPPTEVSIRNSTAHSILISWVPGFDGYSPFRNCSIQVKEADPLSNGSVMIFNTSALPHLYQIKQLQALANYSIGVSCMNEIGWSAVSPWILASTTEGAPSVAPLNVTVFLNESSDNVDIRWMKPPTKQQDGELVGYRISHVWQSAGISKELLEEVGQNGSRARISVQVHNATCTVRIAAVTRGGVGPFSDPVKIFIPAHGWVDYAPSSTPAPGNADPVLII

[7] = molecular target: T2, recombinant human Axl-Fc chimera (rhAxl-Fc; R&D Systems, Cat. no. 154-AL) (human, UniProt P30530 26-451); assay: SPR (Biacore), rhAxl immobilised; same values as Table 1
T2 construct: Bought construct; also called rhAxi-Fc; Hu-Axl-Fc; Fc part of the bought chimera not given

[8] = molecular target: T2, recombinant human Axl-Fc chimera …; assay: SPR (Biacore 3000, 25 C), rhAxl-Fc immobilised; ln2/koff
[9] = molecular target: T2, recombinant human Axl-Fc chimera …; assay: SPR (Biacore 3000, 25 C), rhAxl-Fc immobilised (190 RU), antibody as analyte, koff/kon
[10] = molecular target: T3, recombinant cyno-Axl-Fc (extracellular domain of Axl from Macaca fascicularis fused to human Fc) (cynomolgus monkey (Macaca fascicularis), UniProt P30530 26-451 (human entry)); assay: Biacore 3000 SPR, cyno-Axl-Fc on a CM5 chip, antibody injected at 10 µg/mL for 3 min, 5 min dissociation [upper panel 10G5]
T3 construct: Made by transient expression in CHO cells; also called Axl from cynomolgus monkey; not shown: human Fc
T3 chain: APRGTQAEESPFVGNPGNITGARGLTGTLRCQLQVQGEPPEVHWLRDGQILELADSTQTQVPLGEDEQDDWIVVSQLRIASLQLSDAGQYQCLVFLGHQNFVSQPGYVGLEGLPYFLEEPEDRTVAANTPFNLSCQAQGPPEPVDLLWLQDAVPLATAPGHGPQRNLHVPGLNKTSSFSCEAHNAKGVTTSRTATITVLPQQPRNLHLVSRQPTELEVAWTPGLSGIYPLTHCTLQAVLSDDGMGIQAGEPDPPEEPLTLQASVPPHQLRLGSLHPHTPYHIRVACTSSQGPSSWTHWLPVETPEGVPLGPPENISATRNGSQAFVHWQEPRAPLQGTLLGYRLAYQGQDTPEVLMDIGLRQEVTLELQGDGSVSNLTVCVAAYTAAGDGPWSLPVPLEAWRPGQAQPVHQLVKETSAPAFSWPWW

[11] = molecular target: T2, recombinant human Axl-Fc chimera …; assay: SPR (Biacore 3000, 25 C), rhAxl-Fc immobilised (190 RU), antibody as analyte, 1:1 Langmuir
[12] = molecular target: T4, recombinant human Tyro3/Dtk-Fc chimera (rhTyro3/Dtk-Fc; R&D Systems, Cat no. 859-DK) (human, UniProt Q06418 41-429); assay: Biacore 3000 SPR, rhTyro3/Dtk-Fc on a CM5 chip, antibody injected for 3 min; concentration from Example 2, not printed on the sheet
T4 construct: Bought construct; Fc part of the bought chimera not given
T4 sequence: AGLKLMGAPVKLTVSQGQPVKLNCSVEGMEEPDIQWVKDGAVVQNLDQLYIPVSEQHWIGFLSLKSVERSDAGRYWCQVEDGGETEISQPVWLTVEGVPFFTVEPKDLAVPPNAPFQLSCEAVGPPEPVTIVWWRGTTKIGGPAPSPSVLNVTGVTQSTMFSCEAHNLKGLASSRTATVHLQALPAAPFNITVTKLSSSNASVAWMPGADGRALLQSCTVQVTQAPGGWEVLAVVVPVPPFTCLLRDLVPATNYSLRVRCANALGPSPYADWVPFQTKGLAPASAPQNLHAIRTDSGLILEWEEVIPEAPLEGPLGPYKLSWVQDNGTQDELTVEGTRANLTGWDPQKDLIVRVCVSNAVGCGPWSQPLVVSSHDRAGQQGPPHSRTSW

[13] = molecular target: T5, human Axl receptor on cells (MDA-MB-231, HeLa, LX2, Axl-positive cells) (human, UniProt P30530 26-894); assay: cell-based or functional assay
[14] = molecular target: T2, recombinant human Axl-Fc chimera …; assay: SPR (Biacore), rhAxl immobilised on the sensor chip, antibody as analyte
[15] = molecular target: T2, recombinant human Axl-Fc chimera …; assay: SPR (Biacore), rhAxl immobilised on the sensor chip
[16] = molecular target: T5, human Axl receptor on cells …; assay: cell-based or functional assay; remark: listed apart in the source
[17] = molecular target: T5, human Axl receptor on cells …; assay: flow cytometry titration on MDA-MB-231 cells, Kd of the fitted curve, the axis of the fitted curves is Conc. (nM) [table under the graph]
[18] = molecular target: T5, human Axl receptor on cells …; assay: flow cytometry on MDA-MB-231 cells, APC-conjugated anti-human IgG F(ab')2 detection
[19] = molecular target: recombinant human Axl-Fc chimera (rhAxl-Fc; R&D Systems, Cat. no. 154-AL) (human) (UniProt P30530); assay: SPR two-injection competition on immobilised Axl-Fc; second injection, competitor bound first: H2L1
[20] = molecular target: recombinant human Axl-Fc chimera (rhAxl-Fc; R&D Systems, Cat. no. 154-AL) (human) (UniProt P30530); assay: SPR two-injection competition on immobilised Axl-Fc; response expected for the second sample (first: Gas6)
[21] = molecular target: recombinant human Axl-Fc chimera (rhAxl-Fc; R&D Systems, Cat. no. 154-AL) (human) (UniProt P30530); assay: SPR two-injection competition on immobilised Axl-Fc; response expected for the second sample (first: H2L1)
[22] = molecular target: recombinant human Axl-Fc chimera (rhAxl-Fc; R&D Systems, Cat. no. 154-AL) (human) (UniProt P30530); assay: SPR two-injection competition on immobilised Axl-Fc; second injection, competitor bound first: Gas6

B1: chimeric 1H12 anti-Axl antibody (antibody, from another filing, V domains shown)
VH: EVQLVESGGDLVKPGGSLKLSCAASGFTFSSYGMSWVRQTPDKRLEWVATISSGGSYTYYPDSVKGRFTISRDNAKNTLYLQMSSLKSEDTAMYYCARHPIYYTYDDTMDYWGQGTSVTVSS
VL: ENVLTQSPAIMAASPGEKVTMTCSASSSVSSGNFHWYQQKPGTSPKLWIYRTSNLASGVPARFSGSGSGTSYSLTISSMEAEDAATYYCQQWSGYPWTFGGGTKLEIK
1st Response [1]: 400 and 220 | 2nd Response [2]: 180 | Expected response if independent [3]: 400 | Expected response if independent [4]: 220 | 2nd Response [5]: 400

B2: mouse monoclonal antibody 10G5 (antibody, V domains shown)
VH: QVQLQQSGAELVRPGASVKLSCKASGYSFTDFYINWVRQRPGQGLEWIARIFPGGDNTYYNEKFKGKATLTAEESSSTAYIQLSSLTSEDSAVYFCARRGLYYAMDYWGQGISVTVSS
VL: DVLMTQTPLSLPVSLGDQASISCRSSQSLVHSNGIPYLHWYLQKPGQSPKLLIYRVSNRFSGVPDRFSGSGSGTDFTLKISRVEAEDLGVYFCSQGTHVPPTFGGGTKLEIK
notes: Whole mouse IgG purified from hybridoma supernatant; also called murine 10G5; MAb 10G5
binding result [6]: no binding (tested: 10 µg/mL) | Half-life (t1/2) [7]: 26.3 min | Kd [7]: 0.53 nM | koff [7]: 0.000439 s⁻¹ | kon [7]: 829000 M⁻¹ s⁻¹ | Half-life (t1/2) [8]: 26.3 min | Kd [9]: 0.53 nM | binding result [10]: binds | koff [11]: 0.000439 s⁻¹ | kon [11]: 829000 M⁻¹ s⁻¹ | binding result [12]: no binding (tested: 10 µg/mL)

B3: humanised 10G5 antibody H1L1 (antibody, human IgG1, kappa, V domains shown)
VH: EVQLVQSGAGLVQPGGSVRLSCAASGYSFTDFYINWVRQAPGKGLEWIARIFPGGDNTYYNEKFKGRFTLSADTSSSTAYLQLNSLRAEDTAVYYCARRGLYYAMDYWGQGTLVTVSS
VL: DIQMTQSPSSLSASVGDRVTITCRSSQSLVHSNGIPYLHWYQQKPGKAPKLLIYRVSNRFSGVPSRFSGSGSGTDFTLTISSLQPEDFATYYCSQGTHVPPTFGQGTKVEIKR
notes: H1L1 is read as GH1 heavy chain + GL1 light chain; also called hu10G5 H1L1
EC50 (pM), tumour cell killing by antibody-Saporin conjugates, as in Example 20 [13]: 17.1 pM | Kd [14]: 0.105 nM | koff [14]: 0.000161 s⁻¹ | kon [14]: 1.54e+06 M⁻¹ s⁻¹ | Half-life (t1/2) [15]: 71.7 min | EC50 (pM), killing of MDA-MB-231 cells by antibody coupled to Saporin (FabFc-ZAP), XTT/PMS viability after 72 hrs [16]: 3.44 pM | Kd [17]: 0.12 nM | EC50 (read off the curve) [18]: ~0.1 nM

B4: humanised 10G5 antibody H2L1 (antibody, human IgG1, kappa, V domains shown)
VH: EVQLVESGGGLVQPGGSLRLSCAASGYSFTDFYINWVRQAPGKGLEWVARIFPGGDNTYYNEKFKGRFTLSADTSKSTAYLQMNSLRAEDTAVYYCARRGLYYAMDYWGQGTLVTVSS
VL: DIQMTQSPSSLSASVGDRVTITCRSSQSLVHSNGIPYLHWYQQKPGKAPKLLIYRVSNRFSGVPSRFSGSGSGTDFTLTISSLQPEDFATYYCSQGTHVPPTFGQGTKVEIKR
notes: H2L1 is read as GH2 heavy chain + GL1 light chain; also called hu10G5 H2L1; Hu10G5 (H2L1)
1st Response [1]: 323 | EC50 (pM), tumour cell killing by antibody-Saporin conjugates, as in Example 20 [13]: 2.66 pM | Kd [14]: 0.0686 nM | koff [14]: 0.000142 s⁻¹ | kon [14]: 2.07e+06 M⁻¹ s⁻¹ | Half-life (t1/2) [15]: 81.4 min | 2nd Response [19]: 8.9 | Expected response if independent [20]: 318 | EC50 (pM), killing of MDA-MB-231 cells by antibody coupled to Saporin (FabFc-ZAP), XTT/PMS viability after 72 hrs [16]: 2.68 pM | Kd [17]: 0.192 nM | Expected response if independent [21]: 323 | 2nd Response [22]: 301 | EC50 (read off the curve) [18]: ~0.2 nM

From patent publication US20220195054A1 (BERGEN TEKNOLOGIOVERF RING, published 2022)
